Values of other authors as cited in article PMC7096212.

What was measured:
[1] = biological target: insulin (Homo sapiens) (UniProt P01308)
[2] = biological target: IGF-1 (Homo sapiens) (UniProt P05019)
[3] = biological target: DILP-5 (Drosophila melanogaster) (UniProt Q7KUD5)
Chain of UniProt Q7KUD5 (Q7KUD5 23-50, chain 1 of 2): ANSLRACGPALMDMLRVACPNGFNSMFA
Chain of UniProt Q7KUD5 (Q7KUD5 84-108, chain 2 of 2): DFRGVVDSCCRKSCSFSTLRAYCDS

Chain of UniProt P01308 (P01308 90-110): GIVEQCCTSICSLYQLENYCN
Chain of UniProt P05019 (P05019 49-118): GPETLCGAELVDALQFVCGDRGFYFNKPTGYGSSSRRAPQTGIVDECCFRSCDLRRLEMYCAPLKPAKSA

## IBP (from UniProt Q09024)
[1]
  Kd: 135 nM
[2]
  Kd: 13.6 nM
[3]
  Kd: 2 nM
